Square brackets hold non-standard residues; d marks the D form. Ends that are not written are not given here. Nle = CCCC[C@H](N)C(=O)O
B1: metallopeptide 3-1 (peptide)
peptide: YVXGHFRWDRFC
modifications: Nle 3 (X in letters); D-Phe 6; C-terminal amide; Re complexed at Cys 12
B2: metallopeptide 3-2 (peptide)
peptide: YV[Nle]GH[dF]RWDRCF-NH2
modifications: not fully specified (bridges); printed as Tyr-Val-Nle-Gly-His-D-Phe-Arg-Trp-Asp-Arg-Cys-Phe-NH2; also: oxorhenium(V) N3S1 chelate (backbone N of D9, R10, C11 and C11 S)
B3: metallopeptide 3-3 (peptide)
peptide: YV[Nle]GH[dF]RWDCRF-NH2
modifications: not fully specified (bridges); printed as Tyr-Val-Nle-Gly-His-D-Phe-Arg-Trp-Asp-Cys-Arg-Phe-NH2; also: oxorhenium(V) N3S1 chelate (backbone N of W8, D9, C10 and C10 S)
B4: metallopeptide 3-4 (peptide)
peptide: YV[Nle]GH[dF]RWCDRF-NH2
modifications: not fully specified (bridges); printed as Tyr-Val-Nle-Gly-His-D-Phe-Arg-Trp-Cys-Asp-Arg-Phe-NH2; also: oxorhenium(V) N3S1 chelate (backbone N of R7, W8, C9 and C9 S)
B5: metallopeptide 3-5 (peptide)
peptide: YV[Nle]GH[dF]RCWDRF-NH2
modifications: not fully specified (bridges); printed as Tyr-Val-Nle-Gly-His-D-Phe-Arg-Cys-Trp-Asp-Arg-Phe-NH2; also: bridge at 8 via Re(V)=O, other end not in the chain
B6: metallopeptide 3-6 (peptide)
peptide: YV[Nle]GH[dF]CRWDRF-NH2
modifications: not fully specified (bridges); printed as Tyr-Val-Nle-Gly-His-D-Phe-Cys-Arg-Trp-Asp-Arg-Phe-NH2; also: bridge at 7 via Re(V)=O, other end not in the chain
B7: metallopeptide 1-1 (peptide)
peptide: Ac-SYS[Nle]EHFRWGKGVC-NH2
modifications: not fully specified; also: oxorhenium(V) N3S1 chelate at Cys14
B8: metallopeptide 1-2 (peptide)
peptide: Ac-SYS[Nle]EHFRWGKGCV-NH2
modifications: also: oxorhenium(V) N3S1 chelate at Cys13
B9: metallopeptide 1-3 (peptide)
peptide: Ac-SYS[Nle]EHFRWGKCPV-NH2
modifications: also: oxorhenium(V) N3S1 chelate at Cys12
B10: metallopeptide 1-5 (peptide)
peptide: Ac-SYS[Nle]EHFRWCGKPV-NH2
modifications: also: oxorhenium(V) N3S1 chelate at Cys10
B11: metallopeptide 1-6 (peptide)
peptide: Ac-SYS[Nle]EHFRCWGKPV-NH2
modifications: also: oxorhenium(V) N3S1 chelate at Cys9
B12: metallopeptide 1-7 (peptide)
peptide: Ac-SYS[Nle]EHFCRWGKPV-NH2
modifications: also: oxorhenium(V) N3S1 chelate at Cys8
B13: metallopeptide 1-9 (peptide)
peptide: Ac-SYS[Nle]ECHFRWGKPV-NH2
modifications: also: oxorhenium(V) N3S1 chelate at Cys6
B14: metallopeptide 1-10 (peptide)
peptide: Ac-SYS[Nle]CEHFRWGKPV-NH2
modifications: also: oxorhenium(V) N3S1 chelate at Cys5
B15: metallopeptide 1-11 (peptide)
peptide: Ac-SYSC[Nle]EHFRWGKPV-NH2
modifications: also: oxorhenium(V) N3S1 chelate at Cys4
B16: metallopeptide 1-12 (peptide)
peptide: Ac-SYCS[Nle]EHFRWGKPV-NH2
modifications: also: oxorhenium(V) N3S1 chelate at Cys3
B17: metallopeptide 2-6 (peptide)
peptide: Ac-SYS[Nle]EHFR[dC]WGKPV-NH2
modifications: also: oxorhenium(V) N3S1 chelate at D-Cys9
B18: metallopeptide 2-7 (peptide)
peptide: Ac-SYS[Nle]EHF[dC]RWGKPV-NH2
modifications: also: oxorhenium(V) N3S1 chelate at D-Cys8
B19: α-MSH parent polypeptide Ac-Ser-Tyr-Ser-Met-Glu-His-Phe-Arg-Trp-Gly-Lys-Pro-Val-NH2 (peptide)
peptide: Ac-SYSMEHFRWGKPV-NH2
notes: not complexed to Re; also called α-MSH analog
B20: metallopeptide 1-4 (peptide)
peptide: Ac-SYS[Nle]EHFRWGCKPV-NH2
modifications: also: oxorhenium(V) N3S1 chelate at Cys11
B21: metallopeptide 1-8 (peptide)
peptide: Ac-SYS[Nle]EHCFRWGKPV-NH2
modifications: also: oxorhenium(V) N3S1 chelate at Cys7

biological target: T1, melanocortin-1 receptor (MC1-R) of B-16 mouse melanoma cells (mouse, UniProt Q01727 1-315); experiment: 125I-NDP-α-MSH competition, B-16 membranes
T1 construct: whole, on cells; membranes prepared from the cells were used; also called Melanocortin Receptor 1
Procedure: (§1) The competitive inhibition binding assay was conducted using membranes prepared from hMC3-R, hMC4-R, hMC5-R, and B-16 mouse melanoma cells (containing MC1-R) using 0.4 nM ¹²⁵I-NDP-alpha-MSH (New England Nuclear, Boston, Mass., USA) in 50 mM HEPES buffer containing 1 mM MgCl₂, 2 mM CaCl₂, and 5 mM KCl, at pH 7.2. […] Incubation was for 90 minutes at room temperature, after which the assay mixture was filtered and the membranes washed three times with ice cold buffer. The filter was dried and counted in a gamma counter for remaining radioactivity bound to the membranes. 100% specific binding was defined as the difference in radioactivity (cpm) bound to cell membranes in the absence and presence of 1 μM α-MSH. […] Each assay was conducted in triplicate and the actual mean valves are described.
(§2) The first unnumbered peptide in Table 3 is the parent polypeptide, which is a Nle³, D-Phe⁶ substituted γ-MSH analog specific for melanocortin receptors. The methods and assays set forth in Example 1 were followed.

T1 sequence (Q01727 whole entry): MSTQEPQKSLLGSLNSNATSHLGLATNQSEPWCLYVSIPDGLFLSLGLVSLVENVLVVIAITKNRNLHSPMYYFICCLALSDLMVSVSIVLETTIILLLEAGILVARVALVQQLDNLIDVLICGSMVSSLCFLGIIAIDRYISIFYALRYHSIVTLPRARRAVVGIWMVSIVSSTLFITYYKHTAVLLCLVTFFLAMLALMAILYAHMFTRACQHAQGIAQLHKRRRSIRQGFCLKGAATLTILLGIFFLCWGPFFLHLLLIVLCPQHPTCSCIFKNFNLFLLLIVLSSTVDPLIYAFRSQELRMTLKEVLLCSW

| Binder | % Inhibition at 1 µM [%] |
| --- | --- |
| B1 | 95 |
| B2 | 99 |
| B3 | 99 |
| B4 | 98 |
| B5 | 83 |
| B6 | 52 |

biological target: T2, human melanocortin-5 receptor (hMC5-R) (human, UniProt P33032 1-325); experiment: 125I-NDP-α-MSH competition, hMC5-R membranes
T2 construct: whole, on cells; membranes prepared from hMC5-R cells were used; also called Melanocortin Receptor 5
Procedure: as §1

T2 sequence (P33032 whole entry): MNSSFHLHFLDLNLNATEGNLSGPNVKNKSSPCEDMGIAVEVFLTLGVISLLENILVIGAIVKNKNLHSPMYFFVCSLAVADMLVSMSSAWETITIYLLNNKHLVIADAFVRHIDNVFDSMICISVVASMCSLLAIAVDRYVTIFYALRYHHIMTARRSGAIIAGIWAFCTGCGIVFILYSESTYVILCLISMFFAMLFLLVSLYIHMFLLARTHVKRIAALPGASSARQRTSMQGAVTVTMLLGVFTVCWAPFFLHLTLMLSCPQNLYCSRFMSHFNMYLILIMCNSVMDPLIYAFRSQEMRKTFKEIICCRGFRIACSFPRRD

| Binder | % Inhibition at 1 µM [%] |
| --- | --- |
| B7 | 68 |
| B8 | 37 |
| B9 | 12 |
| B10 | 0 |
| B11 | 0 |
| B12 | 0 |
| B13 | 6 |
| B14 | 5 |
| B15 | 6 |
| B16 | 19 |

biological target: T3, human melanocortin-4 receptor (hMC4-R) (human, UniProt P32245 1-332); experiment: 125I-NDP-α-MSH competition, hMC4-R membranes
T3 construct: whole, on cells; membranes prepared from hMC4-R cells were used; also called Melanocortin Receptor 4
Procedure: as §1, §2

T3 sequence (P32245 whole entry): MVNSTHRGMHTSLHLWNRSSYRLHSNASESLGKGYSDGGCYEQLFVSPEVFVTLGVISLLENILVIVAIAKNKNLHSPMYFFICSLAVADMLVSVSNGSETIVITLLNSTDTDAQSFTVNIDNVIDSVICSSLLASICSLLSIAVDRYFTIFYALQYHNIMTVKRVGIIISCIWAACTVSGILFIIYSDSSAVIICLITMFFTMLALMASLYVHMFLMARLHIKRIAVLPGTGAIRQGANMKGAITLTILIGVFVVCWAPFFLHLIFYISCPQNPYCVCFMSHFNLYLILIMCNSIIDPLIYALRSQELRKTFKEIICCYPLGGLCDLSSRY

| Binder | % Inhibition at 1 µM [%] |
| --- | --- |
| B1 | 98 |
| B2 | 89 |
| B3 | 99 |
| B4 | 94 |
| B5 | 33 |
| B6 | 31 |

biological target: T4, human melanocortin-3 receptor (hMC3-R) (human, UniProt P41968 1-323); experiment: 125I-NDP-α-MSH competition, hMC3-R membranes
T4 construct: whole, on cells; membranes prepared from hMC3-R cells were used; also called Melanocortin Receptor 3
Procedure: as §1, §2

T4 sequence (P41968 whole entry): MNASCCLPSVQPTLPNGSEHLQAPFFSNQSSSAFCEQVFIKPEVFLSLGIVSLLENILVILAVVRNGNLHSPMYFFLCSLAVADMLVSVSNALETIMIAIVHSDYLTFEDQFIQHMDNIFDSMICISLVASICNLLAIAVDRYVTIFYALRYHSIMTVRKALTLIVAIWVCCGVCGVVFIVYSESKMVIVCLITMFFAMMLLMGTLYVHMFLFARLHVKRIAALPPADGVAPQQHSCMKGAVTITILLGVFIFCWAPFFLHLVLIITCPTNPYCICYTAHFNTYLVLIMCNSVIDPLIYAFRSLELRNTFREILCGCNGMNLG

| Binder | % Inhibition at 1 µM [%] |
| --- | --- |
| B1 | 96 |
| B2 | 91 |
| B3 | 95 |
| B4 | 88 |
| B5 | 45 |
| B6 | 20 |

biological target: T2, human melanocortin-5 receptor (hMC5-R); experiment: 125I-NDP-α-MSH competition, hMC5-R membranes; remark: another data set of the same source
Procedure: as §1
(§3) The methods and assays set forth in Example 1 were followed.

| Binder | % Inhibition at 1 µM [%] |
| --- | --- |
| B17 | 6 |
| B18 | 0 |

biological target: T1, melanocortin-1 receptor (MC1-R) of B-16 …; experiment: 125I-NDP-α-MSH competition, B-16 membranes; remark: another data set of the same source
Procedure: as §1, §3

| Binder | % Inhibition at 1 µM [%] |
| --- | --- |
| B19 | 99 |
| B17 | 46 |
| B18 | 54 |

biological target: T4, human melanocortin-3 receptor (hMC3-R); experiment: 125I-NDP-α-MSH competition, hMC3-R membranes; remark: another data set of the same source
Procedure: as §1, §3

| Binder | % Inhibition at 1 µM [%] |
| --- | --- |
| B17 | 2 |
| B18 | 0 |

biological target: T3, human melanocortin-4 receptor (hMC4-R); experiment: 125I-NDP-α-MSH competition, hMC4-R membranes; remark: another data set of the same source
Procedure: as §1, §3

| Binder | % Inhibition at 1 µM [%] |
| --- | --- |
| B17 | 6 |
| B18 | 6 |

biological target: T1, melanocortin-1 receptor (MC1-R) of B-16 …; experiment: 125I-NDP-α-MSH competition, B-16 membranes; remark: another data set of the same source
Procedure: as §1

| Binder | % Inhibition at 1 µM [%] |
| --- | --- |
| B7 | 95 |
| B8 | 87 |
| B9 | 87 |
| B20 | 72 |
| B10 | 57 |
| B11 | 29 |
| B12 | 68 |
| B21 | 42 |
| B13 | 74 |
| B14 | 72 |
| B15 | 95 |
| B19 | 99 |
| B16 | 96 |

biological target: T4, human melanocortin-3 receptor (hMC3-R); experiment: 125I-NDP-α-MSH competition, hMC3-R membranes; remark: another data set of the same source
Procedure: as §1

| Binder | % Inhibition at 1 µM [%] |
| --- | --- |
| B7 | 48 |
| B9 | 0 |
| B20 | 0 |
| B10 | 0 |
| B11 | 0 |
| B12 | 0 |
| B21 | 0 |
| B13 | 0 |
| B14 | 0 |
| B15 | 18 |
| B16 | 15 |

biological target: T3, human melanocortin-4 receptor (hMC4-R); experiment: 125I-NDP-α-MSH competition, hMC4-R membranes; remark: another data set of the same source
Procedure: as §1

| Binder | % Inhibition at 1 µM [%] |
| --- | --- |
| B7 | 63 |
| B8 | 0 |
| B9 | 0 |
| B20 | 0 |
| B10 | 0 |
| B11 | 0 |
| B12 | 0 |
| B21 | 0 |
| B15 | 21 |
| B16 | 26 |

biological target: T2, human melanocortin-5 receptor (hMC5-R); experiment: 125I-NDP-α-MSH competition, hMC5-R membranes; remark: another data set of the same source
Procedure: as §1, §2

| Binder | % Inhibition at 1 µM [%] |
| --- | --- |
| B1 | 102 |
| B2 | 100 |
| B3 | 99 |
| B4 | 100 |
| B5 | 81 |
| B6 | 31 |
